Measurements reported in paper PMC4066437, “Oxidation of cellular amino acid pools leads to cytotoxic mistranslation of the genetic code” (eLife, 2014).

Key:
Assay in all cases: ATP/PPi exchange (amino acid activation)
[1] = substrate: N[C@@H](Cc1ccccc1)C(=O)O; type: biochemical, Escherichia coli; conditions: 2 mM ATP, 2 mM [32P]PPi, 10 mM MgCl2, pH 7.2, 37 °C, stereochemistry of Phe not given
Text: (§1) ATP/PPi exchange (amino acid activation) on EcPheRS (E. coli phenylalanine-tRNA synthetase)

[2] = substrate: NC(Cc1cccc(O)c1)C(=O)O; type: biochemical, Escherichia coli; conditions: 2 mM ATP, 2 mM [32P]PPi, 10 mM MgCl2, pH 7.2, 37 °C, D,L-m-Tyr varied 20-2000 µM
Text: as §1

[3] = substrate: N[C@@H](Cc1ccccc1)C(=O)O; type: biochemical, Saccharomyces cerevisiae; conditions: 2 mM ATP, 2 mM [32P]PPi, 10 mM MgCl2, pH 7.2, 37 °C, stereochemistry of Phe not given
Text: (§2) ATP/PPi exchange (amino acid activation) on ScctPheRS (Saccharomyces cerevisiae cytoplasmic PheRS; Yeast ct)

[4] = substrate: NC(Cc1cccc(O)c1)C(=O)O; type: biochemical, Saccharomyces cerevisiae; conditions: 2 mM ATP, 2 mM [32P]PPi, 10 mM MgCl2, pH 7.2, 37 °C, D,L-m-Tyr varied 20-2000 µM
Text: as §2

B1: EcPheRS (E. coli phenylalanine-tRNA synthetase) (Escherichia coli K-12) (protein)
chain: MSHLAELVASAKAAISQASDVAALDNVRVEYLGKKGHLTLQMTTLRELPPEERPAAGAVINEAKEQVQQALNARKAELESAALNARLAAETIDVSLPGRRIENGGLHPVTRTIDRIESFFGELGFTVATGPEIEDDYHNFDALNIPGHHPARADHDTFWFDTTRLLRTQTSGVQIRTMKAQQPPIRIIAPGRVYRNDYDQTHTPMFHQMEGLIVDTNISFTNLKGTLHDFLRNFFEEDLQIRFRPSYFPFTEPSAEVDVMGKNGKWLEVLGCGMVHPNVLRNVGIDPEVYSGFAFGMGMERLTMLRYGVTDLRSFFENDLRFLKQFK
notes: His-tagged, from plasmid pQE31-EcFRS (pheS and pheT), dialysed against PPi; (alpha beta)2 heterotetramer; with Phenylalanine--tRNA ligase beta subunit
Km [1]: 18 ± 4 µM | kcat [1]: 5.2 ± 2 s⁻¹ | kcat/Km [1]: 290000 M⁻¹ s⁻¹ | Km [2]: 247 ± 60 µM | kcat [2]: 2.1 ± 0.8 s⁻¹ | kcat/Km [2]: 8000 M⁻¹ s⁻¹

B2: ScctPheRS (Saccharomyces cerevisiae cytoplasmic PheRS; Yeast ct) (Saccharomyces cerevisiae S288C) (protein)
chain: SDFQLEILKKLDELDEIKSTLATFPQHGSQDVLSALNSLKAHNKLEFSKVDTVTYDLTKEGAQILNEGSYEIKLVKLIQELGQLQIKDVMSKLGPQVGKVGQARAFKNGWIAKNASNELELSAKLQNTDLNELTDETQSILAQIKNNSHLDSIDAKILNDLKKRKLIAQGKITDFNVTKGPEFSTDLTKLETDLTSDMVSTNAYKDLKFKPYNFNSQGVQISSGALHPLNKVREEFRQIFFSMGFTEMPSNQYVETGFWNFDALYVPQQHPARDLQDTFYIKDPLTADLPDDKTYMDNIKAVHEQGRFGSIGYRYNWKPEECQKLVLRTHSTAISARMLHDLAKDPKPTRLFSIDRVFRNEAVDATHLAEFHQVEGVLADYNITLGDLIKFMEEFFERMGVTGLRFKPTYNPYTEPSMEIFSWHEGLQKWVEIGNSGMFRPEMLESMGLPKDLRVLGWGLSLERPTMIKYKVQNIRELLGHKVSLDFIETNPAARLDEDLYE
notes: His-tagged purified cytoplasmic enzyme; (alpha beta)2 heterotetramer; with Phenylalanine--tRNA ligase beta subunit
Km [3]: 16 ± 2 µM | kcat [3]: 26 ± 4 s⁻¹ | kcat/Km [3]: 1.6e+06 M⁻¹ s⁻¹ | Km [4]: 1150 ± 230 µM | kcat [4]: 26 ± 4 s⁻¹ | kcat/Km [4]: 23000 M⁻¹ s⁻¹
